From paper PMC4479991

Columns and labels:
[1] = molecular target: T1, zif268 (EGR1 DNA-binding domain), cleaved (UniProt P08046 333-421); assay: EMSA; up to 1 M KCl; binding saturates at about 1:200 DNA:protein; EMSA: binding on ice, at least 1 h, native PAGE 8% (oligos) or 3.5% (1 kb), salt up to 1 M KCl; nanopore: 1 M KCl, 30 min incubation at 200:1 protein:DNA; pH no
[2] = molecular target: T2, zif268_GST (uncleaved fusion) (UniProt P08046 333-421); assay: EMSA; EMSA: binding on ice, at least 1 h, native PAGE 8% (oligos) or 3.5% (1 kb), salt up to 1 M KCl; nanopore: 1 M KCl, 30 min incubation at 200:1 protein:DNA; pH no
[3] = molecular target: T1, zif268 (EGR1 DNA-binding domain), …; assay: as above
[4] = molecular target: T2, zif268_GST (uncleaved fusion); assay: EMSA; 1:300 DNA:protein; EMSA: binding on ice, at least 1 h, native PAGE 8% (oligos) or 3.5% (1 kb), salt up to 1 M KCl; nanopore: 1 M KCl, 30 min incubation at 200:1 protein:DNA; pH no
[5] = molecular target: T1, zif268 (EGR1 DNA-binding domain), …; assay: as above

B1: Atto-647 50 bp oligo, 1 site (dsDNA)
DNA 1: AGTCTGTTACGCTGGCCTCTGCGTGGGCGAATTCGCATGCGCAACCCCAC
DNA 2: GTGGGGTTGCGCATGCGAATTCGCCCACGCAGAGGCCAGCGTAACAGACT
- binding result [1]: binds

B2: (-) 50 bp oligo, no site (dsDNA)
DNA 1: CAGTATGCAAATGACTGCAGTATGCAAATGACC
DNA 2: TCGAGGTCATTTGCATACTGCAGTCATTTGCATACTGGTAC
- binding result [2]: no binding
- binding result [3]: no binding

B3: (+) 50 bp oligo, 2 sites separated by 6 bp (dsDNA)
DNA 1: CAGGCGTGGGCGCTGCAGGCGTGGGCGCC
DNA 2: TCGAGGCGCCCACGCCTGCAGCGCCCACGCCTGGTAC
- binding result [4]: binds
- binding result [5]: binds
